Measurements as given in patent US20250339531A1, “DUX4 POLYPEPTIDES AND NUCLEIC ACIDS FOR TREATING INFLAMMATORY AND AUTOIMMUNE CONDITIONS” (Fred Hutchinson Cancer Center, priority 2021, published 2025).

B1: TUBB (protein)
chain: MREIVHIQAGQCGNQIGAKFWEVISDEHGIDPTGTYHGDSDLQLDRISVYYNEATGGKYVPRAILVDLEPGTMDSVRSGPFGQIFRPDNFVFGQSGAGNNWAKGHYTEGAELVDSVLDVVRKEAESCDCLQGFQLTHSLGGGTGSGMGTLLISKIREEYPDRIMNTFSVVPSPKVSDTVVEPYNATLSVHQLVENTDETYCIDNEALYDICFRTLKLTTPTYGDLNHLVSATMSGVTTCLRFPGQLNADLRKLAVNMVPFPRLHFFMPGFAPLTSRGSQQYRALTVPELTQQVFDAKNMMAACDPRHGRYLTVAAVFRGRMSMKEVDEQMLNVQNKNSSYFVEWIPNNVKTAVCDIPPRGLKMAVTFIGNSTAIQELFKRISEQFTAMFRRKAFLHWYTGEGMDEMEFTEAESNMNDLVSEYQQYQDATAEEEEDFGEEAEEEA
B2: CAVIN1 (protein)
chain: MEDPTLYIVERPLPGYPDAEAPEPSSAGAQAAEEPSGAGSEELIKSDQVNGVLVLSLLDKIIGAVDQIQLTQAQLEERQAEMEGAVQSIQGELSKLGKAHATTSNTVSKLLEKVRKVSVNVKTVRGSLERQAGQIKKLEVNEAELLRRRNFKVMIYQDEVKLPAKLSISKSLKESEALPEKEGEELGEGERPEEDAAALELSSDEAVEVEEVIEESRAERIKRSGLRRVDDFKKAFSKEKMEKTKVRTRENLEKTRLKTKENLEKTRHTLEKRMNKLGTRLVPAERREKLKTSRDKLRKSFTPDHVVYARSKTAVYKVPPFTFHVKKIREGQVEVLKATEMVEVGADDDEGGAERGEAGDLRRGSSPDVHALLEITEESDAVLVDKSDSD
B3: DBN1 (protein)
chain: AGVSFSGHRLELLAAYEEVIREESAADWALYTYEDGSDDLKLAASGEGGLQELSGHFENQKVMYGFCSVKDSQAALPKYVLINWVGEDVPDARKCACASHVAKVAEFFQGVDVIVNASSVEDIDAGAIGQRLSNGLARLSSPVLHRLRLREDENAEPVGTTYQKTDAAVEMKRINREQFWEQAKKEEELRKEEERKKALDERLRFEQERMEQERQEQEERERRYREREQQIEEHRRKQQTLEAEEAKRRLKEQSIFGDHRDEEEETHMKKSESEVEEAAAIIAQRPDNPREFFKQQERVASASAGSCDVPSPFNHRPGSHLDSHRRMAPTPIPTRSPSDSSTASTPVAEQIERALDEVTSSQPPPLPPPPPPAQETQEPSPILDSEETRAAAPQAWAGPMEEPPQAQAPPRGPGSPAEDLMFMESAEQAVLAAPVEPATADATEIHDAADTIETDTATADTTVANNVPPAATSLIDLWPGNGEGASTLQGEPRAPTPPSGTEVTLAEVPLLDEVAPEPLLPAGEGCATLLNFDELPEPPATFCDPEEVEGESLAAPQTPTLPSALEELEQEQEPEPHLLTNGETTQKEGTQASEGYFSQSQEEEFAQSEELCAKAPPPVFYNKPPEIDITCWDADPVPEEEEGFEGGD
B4: CFL1 (protein)
chain: MVSPGHGHLRERKELTPHSTNPAAARIWDATYSDGYVRPASGVAVSDGVIKVFNDMKVRKSSTPEEVKKRKKAVLFCLSEDKKNIILEEGKEILVGDVGQTVDDPYATFVKMLPDKDCRYALYDATYETKESKKEDLVFIFWAPESAPLKSKMIYASSKDAIKKKLTGIKHELQANCYEEVKDRCTLAEKLGGSAVISLEGKPL
B5: ACTN1 (protein)
chain: MDHYDSQQTNDYMQPEEDWDRDLLLDPAWEKQQRKTFTAWCNSHLRKAGTQIENIEEDFRDGLKLMLLLEVISGERLAKPERGKMRVHKISNVNKALDFIASKGVKLVSIGAEEIVDGNVKMTLGMIWTIILRFAIQDISVEETSAKEGLLLWCQRKTAPYKNVNIQNFHISWKDGLGFCALIHRHRPELIDYGKLRKDDPLTNLNTAFDVAEKYLDIPKMLDAEDIVGTARPDEKAIMTYVSSFYHAFSGAQKAETAANRICKVLAVNQENEQLMEDYEKLASDLLEWIRRTIPWLENRVPENTMHAMQQKLEDFRDYRRLHKPPKVQEKCQLEINFNTLQTKLRLSNRPAFMPSEGRMVSDINNAWGCLEQVEKGYEEWLLNEIRRLERLDHLAEKFRQKASIHEAWTDGKEAMLRQKDYETATLSEIKALLKKHEAFESDLAAHQDRVEQIAAIAQELNELDYYDSPSVNARCQKICDQWDNLGALTQKRREALERTEKLLETIDQLYLEYAKRAAPFNNWMEGAMEDLQDTFIVHTIEEIQGLTTAHEQFKATLPDADKERLAILGIHNEVSKIVQTYHVNMAGTNPYTTITPQEINGKWDHVRQLVPRRDQALTEEHARQQHNERLRKQFGAQANVIGPWIQTKMEEIGRISIEMHGTLEDQLSHLRQYEKSIVNYKPKIDQLEGDHQLIQEALIFDNKHTNYTMEHIRVGWEQLLTTIARTINEVENQILTRDAKGISQEQMNEFRASFNHFDRDHSGTLGPEEFKACLISLGYDIGNDPQGEAEFARIMSIVDPNRLGVVTFQAFIDFMSRETADTDTADQVMASFKILAGDKNYITMDELRRELPPDQAEYCIARMAPYTGPDSVPGALDYMSFSTALYGESDL
B6: LMNA (protein)
chain: METPSQRRATRSGAQASSTPLSPTRITRLQEKEDLQELNDRLAVYIDRVRSLETENAGLRLRITESEEVVSREVSGIKAAYEAELGDARKTLDSVAKERARLQLELSKVREEFKELKARNTKKEGDLIAAQARLKDLEALLNSKEAALSTALSEKRTLEGELHDLRGQVAKLEAALGEAKKQLQDEMLRRVDAENRLQTMKEELDFQKNIYSEELRETKRRHETRLVEIDNGKQREFESRLADALQELRAQHEDQVEQYKKELEKTYSAKLDNARQSAERNSNLVGAAHEELQQSRIRIDSLSAQLSQLQKQLAAKEAKLRDLEDSLARERDTSRRLLAEKEREMAEMRARMQQQLDEYQELLDIKLALDMEIHAYRKLLEGEEERLRLSPSPTSQRSRGRASSHSSQTQGGGSVTKKRKLESTESRSSFSQHARTSGRVAVEEVDEEGKFVRLRNKSNEDQSMGNWQIKRQNGDDPLLTYRFPPKFTLKAGQVVTIWAAGAGATHSPPTDLVWKAQNTWGCGNSLRTALINSTGEEVAMRKLVRSVTVVEDDEDEDGDDLLHHHHGSHCSSSGDPAEYNLRSRTVLCGTCGQPADKASASGSGAQVGGPISSGSSASSVTVTRSYRSVGGSGGGSFGDNLVTRSY
B7: WDR1 (protein)
chain: MPYEIKKVFASLPQVERGVSKIIGGDPKGNNFLYTNGKCVILRNIDNPALADIYTEHAHQVVVAKYAPSGFYIASGDVSGKLRIWDTTQKEHLLKYEYQPFAGKIKDIAWTEDSKRIAVVGEGREKFGAVFLWDSGSSVGEITGHNKVINSVDIKQSRPYRLATGSDDNCAAFFEGPPFKFKFTIGDHSRFVNCVRFSPDGNRFATASADGQIYIYDGKTGEKVCALGGSKAHDGGIYAISWSPDSTHLLSASGDKTSKIWDVSVNSVVSTFPMGSTVLDQQLGCLWQKDHLLSVSLSGYINYLDRNNPSKPLHVIKGHSKSIQCLTVHKNGGKSYIYSGSHDGHINYWDSETGENDSFAGKGHTNQVSRMTVDESGQLISCSMDDTVRYTSLMLRDYSGQGVVKLDVQPKCVAVGPGGYAVVVCIGQIVLLKDQRKCFSIDNPGYEPEVVAVHPGGDTVAIGGVDGNVRLYSILGTTLKDEGKLLEAKGPVTDVAYSHDGAFLAVCDASKVVTVFSVADGYSENNVFYGHHAKIVCLAWSPDNEHFASGGMDMMVYVWTLSDPETRVKIQDAHRLHHVSSLAWLDEHTLVTTSHDASVKEWTITY

System: proteins that co-immunoprecipitated with DUX4-CTD constructs expressed in MB135 myoblasts
Assay: LC-MS of proteins co-immunoprecipitated with DUX4-CTD (Table 1) and western validation
Format: binding, human
Design: key to 4. mL1dL2 + Dox + IFNG / 4. + IFNG mix / 4. longCTD + Dox + IFNG / 3. + IFNg + Dox longCTD / 3. + Dox longCTD / 3. + IFNG longCTD: peptide-spectrum matches (PSMs) per protein
Conditions: kind of count not given; for 4. + IFNG mix: LC-MS value per protein co-immunoprecipitated from MB135 myoblasts, + IFNG mix sample (no Dox); for 4. mL1dL2 + Dox + IFNG: LC-MS value per protein co-immunoprecipitated with DUX4-CTD construct mL1dL2 in MB135 myoblasts
Description: As an unbiased method to identify proteins that interact with the C-terminal region of DUX4, liquid chromatography mass spectroscopy (LC-MS) was used to identify proteins that co-immunoprecipitated with DUX4-CTD constructs expressed in MB135 myoblasts. In the first experiment, MB135iDUX4-CTD cells were used, either untreated, treated with doxycycline alone, or with both doxycycline and IFNG. In the second experiment, MB135iDUX4-CTD and MB135iDUX4mL1dL2 cells were used, both treated with doxycycline and IFNG, compared to these two cell lines untreated and combined as a control. Proteins with a minimum of 2 peptide spectrum matches (PSMs) in at least one sample that were identified in both experiments were assigned to one of ten categories (see Methods) to separate candidate interactors from other categories that might be co-purified because of obligate interactions (e.g., proteasome or ribosome) or might be less likely to be physiologically relevant (e.g., cytoskeletal proteins). Candidate interactors were then ranked based on the total PSMs for that protein across all samples.
Centrifugation at 2500 rcf at 4° C. for 5 min pelleted the nuclei, supernatant was discarded, and nuclei resuspended in 1 mL IP buffer pH 7.4 (25 mM Tris-HCl pH 7.5, 175 mM NaCl, 1 mM EDTA, 0.2% NP-40, 5% glycerol) and incubated for 1 hour at 4° C. with rotation then spun at 21000 rcf for 10 minutes at 4° C. to pellet insoluble debris. Protein concentration was determined using the Pierce BCA Protein Assay Kit (ThermoFisher, 23225). An equivalent amount of protein per sample was pre-cleared with Dynabeads Protein G (Invitrogen) bound to mouse IgG (Abcam #131368) for 1 hour at 4° C. with rotation. FLAG-tagged constructs were then immunoprecipitated with Dynabeads Protein G beads coupled to mouse anti-FLAG M2 mAb (Sigma F3165) for 3 hours at 4° C. with rotation. Beads were washed 3× with 1 mL IP buffer and eluted by adding 2× NuPage LDS Sample Buffer (Thermo Fisher, diluted from 4× with PBS) to the beads and heating for 10 minutes at 70° C.
For LC-MS, anti-FLAG immunoprecipitation was performed with beads cross-linked to the anti-FLAG antibody and the proteins competitively eluted with FLAG peptide. Eluted protein samples were electrophoresed into a NuPage 4-12% Bis-Tris gel, excised, and processed by the Fred Hutchinson Cancer Research Center Proteomics Core. Samples were reduced, alkylated, digested with trypsin, desalted, and run on the Orbitrap Eclipse Tribid Mass Spectrometer (Thermo Fisher). Proteomics data were analyzed using Proteome Discoverer 2.4 against a Uniprot human database that included common contaminants using Sequest HT and Percolator for scoring. […] Proteins that were identified in at least one sample from both independent experiments with at least 2 PSMs in one sample were assigned to one of ten categories: 1, candidates; 2, cytoskeletal associated; 3, cytoskeletal; 4, ribosome/translation associated; 5, proteasome associated; 6, membrane or extracellular; ER, golgi, or vesicle associated; 8, lipid metabolism; 9, chaperones; 10, nuclear import or nuclear membrane associated. The proteins in category 1 were further investigated for interactions with DUX4.

| Molecule | 4. + IFNG mix | 4. mL1dL2 + Dox + IFNG |
| --- | --- | --- |
| B1 | 19 | 56 |
| B2 | 7 | 16 |
| B3 |  | 2 |
| B4 | 1 | 4 |
| B5 | 9 | 22 |
| B6 | 4 | 8 |
| B7 |  | 2 |
